{"source": "the DeepSol protein solubility set", "data": [{"test": "soluble on expression in E. coli; label from the status in PepcDB or PDB records", "values": [{"sequence": "MADDPLYLDRTGEWAGLWWLPEIPDEKVPGFLRYDAECGLLLSLIGAFEDRVTSNPSPGVTAYHEGTRTWEVIHGVAEQREITLFDTIPISSKRTIGARVESPAKQTVTASVAIIGAHVRSEGDPQFAGVEVSVEDLGRWAGSSVFEGLLGAPDGNFDGTGSISVKPVEAQSVLVGGTEYRLVHTHTLPYFDQRKSETVGRMRDTVSIRIVPASPFSLNAALHEASLVQDLISLATHQSAGVIWLRVEVARSESQLPDGRTSPRRRADVLYSPVALGKHDAKPVDHHRMFFTCNSLPFEEVLPRWCETHVRLQAATNMILGLRYAPARFVENNLLTAVGAAEALHRNLRIGEKPFSKAEFTAMRGAMLDQVPSEHRERFKAAIRNDPTLRDRLHALAARPDEEAIGQLIPDVDYWAKRTTRARNDLAHEGRTPNHSFEELVAIVEVTTAVVILNVLQELGLSAERQREIVLTHPKLRHTVGLSREWLVPSKSD", "soluble on expression in E. coli": "not soluble"}, {"sequence": "MADEERLKEFKEANKIVFDPNTRQVWENQNRDGTKPATTFQSEEDIKRAAPESEKDTSATSGIVPTLQNIVATVTLGCRLDLKTVALHARNAEYNPKRFAAVIMRIREPKTTALIFASGKMVVTGAKSEDDSKLASRKYARIIQKIGFAAKFTDFKIQNIVGSCDVKFPIRLEGLAFSHGTFSSYEPELFPGLIYRMVKPKIVLLIFVSGKIVLTGAKQREEIYQAFEAIYPVLSEFRKM", "soluble on expression in E. coli": "soluble"}, {"sequence": "MADESETAVKPPAPPLPQMMEGNGNGHEHCSDCENEEDNSYNRGGLSPANDTGAKKKKKKQKKKKEKGSETDSAQDQPVKMNSLPAERIQEIQKAIELFSVGQGPAKTMEEASKRSYQFWDTQPVPKLGEVVNTHGPVEPDKDNIRQEPYTLPQGFTWDALDLGDRGVLKELYTLLNENYVEDDDNMFRFDYSPEFLLWALRPPGWLPQWHCGVRVVSSRKLVGFISAIPANIHIYDTEKKMVEINFLCVHKKLRSKRVAPVLIREITRRVHLEGIFQAVYTAGVVLPKPVGTCRYWHRSLNPRKLIEVKFSHLSRNMTMQRTMKLYRLPETPKTAGLRPMETKDIPVVHQLLTRYLKQFHLTPVMSQEEVEHWFYPQENIIDTFVVENANGEVTDFLSFYTLPSTIMNHPTHKSLKAAYSFYNVHTQTPLLDLMSDALVLAKMKGFDVFNALDLMENKTFLEKLKFGIGDGNLQYYLYNWKCPSMGAEKVGIVLQ", "soluble on expression in E. coli": "soluble"}, {"sequence": "MADGEAVISTVNNVEEVHGQLFEVAPRYVNLSYIGEGAYGMVASALDTITRDRVAIKKISPFEHQTFCQRTLREIKILNRFKHENIINIQEIIRSETVDSLKDIYIVQCLMETDLYKLLKTQKLSNDHVCYFLYQILRGLKYIHSANVLHRDLKPSNLLLNTTCDLKICDFGLARVTDPQTDHTGFLTEYVATRWYRAPEIMLNSKGYTKSIDVWSVGCILAEMLSNRPLFPGKHYLDQLNLILAVVGSPSNADLQCIINDKARSYLISLPHKPKQPWARLYPGADPRALDLLDKMLTFNPHNRIDIEQALAHPYLEQYYDPGDEPVCEEPFTLEMEFDDLPKEKLKELIWEEAEAHHRRMEAEAAARNNGGQNPV", "soluble on expression in E. coli": "not soluble"}, {"sequence": "MADKENATKIEKMPNSETMKGISSEDVPFEEDIIRNPTSVNCWQRYIDHKLQNKSPAKQMFLIYERALAVFERSYKLWYHYLKYRESTIVNKCPTDNSWRALCDTYERCLMRLHKMPRIWICYCEVMIKRGLITETRRVFDRALRSLPVTQHMRIWTLYIGFLTSHDLPETTIRVYRRYLKMNPKAREDYVEYLIERDQIDEAAKELTTLVNQDQNVSEKGRTAHQLWTQLCDLISKNPVKIFSLNVDAIIRQGIYRYTDQVGFLWCSLADYYIRSAEFERARDVYEEAIAKVSTVRDFAQVYDAYAAFEEREVSIMMQEVEQSGDPEEEVDLEWMFQRYQHLMERKNELMNSVLLRQNPHNVGEWLNRVNIYEGNYNKQIETFKEAVKSVNPKIQVGKVRDLWIGLAKLYEDNGDLDAARKTFETAVISQFGGVSELANVWCAYAEMEMKHKRAKAALTVMQRACVVPKPGDYENMQSVQARVHRSPILWAMYADYEECCGTVESCRKVYDKMIELRVASPQMIMNYAMFLEENEYFELAFQAYEKGIALFKWPGVFDIWNTYLVKFIKRYGGKKLERARDLFEQCLENCPPTHAKYIFLLYAKLEEEHGLARHALSIYNRACSGVDRADMHSMYNIYIKKVQEMYGIAQCRPIFERAISELPEDKSRAMSLRYAQLETTVGEIDRARAIYAHAAEISDPKVHVKFWDTWKNFEVAHGNEATVRDMLRVRRSVEASYNVNVTLTSVQMRVDAERKAQETTTSSNPMDSLDQQQQQPSDGAGSITQVSMNKGNISFVRGAGKTVQQNTTENPDEIDLDEDDDDEEDDGGDADISVKVVPAQIFGNLKLAEEEEEA", "soluble on expression in E. coli": "soluble"}, {"sequence": "MADLRKAARGRECQVRIPGVCNGNPETSVLAHIRLTGLCGTGTKPPDLIATIACSACHDEIDRRTHFVDAGYAKECALEGMARTQVIWLKEGVIKA", "soluble on expression in E. coli": "soluble"}, {"sequence": "MADSVLKEVNCGRPEKIPKLDKACEGSKSSWKHLKLGNVEDDEYLRQYCLFHYEFHKSEGFTVDWEKYDYMFHIRPLENSPPISDIRTNADVIRDVTLFAIEKHNEAHGSKLVFVEHVSANFKFANGLLCWLTFWATDMASSAPTSQIYQVELWRRGKQFEIPIFRVKPKDEEMDDVEVKPPSPMPYDDYDKPPVVFVRAAPEDGVPFVFDRTGALYDLYRSGL", "soluble on expression in E. coli": "soluble"}, {"sequence": "MADTGEKDTETTASGTDGHSKEALAVISMLHECGIQEFDPRVVSMLMDVQYAVTSKILQMSSGLSRHAEKAQIEAEDVQTAADMLGVLTTNAPDREKILQLANDKNQQPLPQIRHNYGLKLPNDRFCQLQQNFVYKADDSYQPMEMQQVTHQPHIIEPPTQVLRPEHVQNMLKRRAPDDDFDS", "soluble on expression in E. coli": "not soluble"}, {"sequence": "MADVFEFELEGHESQASPQRHAYHYDNCTEIMEDDHMYSNVADGQISAPPPSSSYMEDPMMESIQLCASAINPPNVRVGPEDFQLLKVLGKGGYGKVFQVRKTTGSDNGQIFAMKVLQKATIVRNQKDTAHTKAERNILEAVKSPFICDLLYAFQTGGKLYLILEYLSGGELFMHLEREGMFMENVAKFYLSEIVVSLEHLHQQGIIYRDLKPENILLDAYGHVKLTDFGLCKEEIEGDQKTHTFCGTIEYMAPEILMRCGHGKAVDWWSLGALMFDMLTGGPPFTAENRRKTIDKILKGRLTLPAYLSNEARDLIKKLLKRHVDTRLGAGLSDAEEIKSHAFFKTTDWNLVYARQLEAPFKPNIENDEDTSLFDARFTKMTPVDSPCETNFSLNGDNPFVGFTYVAPSVLEMMNKGGHGGISVAHLASSMSRAGAAKSPRKPGDPETASILHGGHSNLFGHGPNSEAPQAFGYGIGSQMTTTTAGGAGIQQPYQSFSGGYPEDDAMDTSTPRASESRETTTGNGSTTTTRPSNVGSSASTPIPLPKRVIKLPHTHTSTQNAQYSFMLLLLNVSLFFHFF", "soluble on expression in E. coli": "not soluble"}, {"sequence": "MAEAASCARKGTKYAEGTQPFTVLIEGNIGSGKTTYLNHFEKYKNDICLLTEPVEKWRNVNGVNLLELMYKDPKKWAMPFQSYVTLTMLQSHTAPTNKKLKIMERSIFSARYCFVENMRRNGSLEQGMYNTLEEWYKFIEESIHVQADLIIYLRTSPEVAYERIRQRARSEESCVPLKYLQELHELHEDWLIHQRRPQSCKVLVLDADLNLENIGTEYQRSESSIFDAISSNQQPSPVLVSPSKRQRVAR", "soluble on expression in E. coli": "soluble"}, {"sequence": "MAEAATPGTTATTSGAGAAAATAAAASPTPIPTVTAPSLGAGGGGGGSDGSGGGWTKQVTCRYFMHGVCKEGDNCRYSHDLSDSPYSVVCKYFQRGYCIYGDRCRYEHSKPLKQEEATATELTTKSSLAASSSLSSIVGPLVEMNTGEAESRNSNFATVGAGSEDWVNAIEFVPGQPYCGRTAPSCTEAPLQGSVTKEESEKEQTAVETKKQLCPYAAVGECRYGENCVYLHGDSCDMCGLQLLHPMDAAQRSQHIKSCIEAHEKDMELSFAVQRSKDMVCGICMEVVYEKANPSERRFGILSNCNHTYCLKCIRKWRSAKQFESKIIKSCPECRITSNFVIPSEYWVEEKEEKQKLILKYKEAMSNKACRYFDEGRGSCPFGGNCFYKHAYPDGRREEPQRQKVGTSSRYRAQRRNHFWELIEERENSNPFDNDEEEVVTFELGEMLLMLLAAGGDDELTDSEDEWDLFHDELEDFYDLDL", "soluble on expression in E. coli": "soluble"}, {"sequence": "MAEAIFSAIVGDVIGRVISLVVSNFNGDHSTEVKLQRICRMLIKIHSVVEEAKGRQITNHGTLEWLSELIDGAYQGRYLLDTIGCGEPDLDDKNRDEVDPKPFSLSKFNPAKRVRVAAFTVRNILSRHDIGVDEIDRVVESLQSMCGDLKEFMMLLQACQPIHRPLATNIFIEGQMFGRHVKKEMIINFLLHEDDLPRGKLGVLPILGDIGVGKTTLVQHACDDARVRSHFTTILLFNFSHTYKMEMCEPKPVLRPKHVIGDVGNSDDPLHELEQSFFNKRFLIVFEDVDIHKKNMLEELLKSLSCGKQGSKIIVTTSNKHVTTIGTVQPIKLKFLPCPEYWFFFKAHAFAGTDVQENPRLVAAGKSIAAKLNGSFFGAKIIGAILKENPDPKFWCTVLQRDIGGLSLLGDGLGYIADLVEILLPSRLSVKEVFVSKNSLSSETELARLQGLCLPCPSSAPLATHSSELSLAKATSYERVLLCKAVLPFYSLYYTAKCAVDSENCYSKFSVV", "soluble on expression in E. coli": "soluble"}, {"sequence": "MAEAKQWDVKQLDRIVEKMIDTVQHSKDEIFRIGEQSRQEHDHLLRELEEVKRLTVQAIEEADQLEMKARQARRRLSEVSQNFSTHSEQDIREAYEQAHELHMKLTMVREREKQLRLRRDELERRLASLAQIIERADYLVGQITVVLHYLNSDFRQVGELIEGAKQKQEFGLKIIEAQEEERRRLSREIHDGPAQLLAHVLLRSDLVEKVIKERGTEAAIAEIRDFRKMVRSALSEVRRIIYDLRPMALDDLGLVPTLKKYLQTTEEYNKGVHISFVHIGEEIRLPSRMEAAVFRLVQESVQNALKHAEARHIDVKMEVTCDHLLVSVKDDGKGFDPSVKKENAFGLIGMRERVELLGGTLDIRSKIGSGTTVFIRVPLDRSTDKTNKEERKR", "soluble on expression in E. coli": "not soluble"}, {"sequence": "MAEAVLRVARRQLSQRGGSGAPILLRQMFEPVSCTFTYLLGDRESREAVLIDPVLETAPRDAQLIKELGLRLLYAVNTHCHADHITGSGLLRSLLPGCQSVISRLSGAQADLHIEDGDSIRFGRFALETRASPGHTPGCVTFVLNDHSMAFTGDALLIRGCGRTDFQQGCAKTLYHSVHEKIFTLPGDCLIYPAHDYHGFTVSTVEEERTLNPRLTLSCEEFVKIMGNLNLPKPQQIDFAVPANMRCGVQTPTALEHHHHHH", "soluble on expression in E. coli": "soluble"}, {"sequence": "MAEEKFFLGRQPILDREQRLYGFELLFRSADSLHANVTDYLQASASVIFDALSSFGFREILGKHKGFINVNADVLMSEALELLPPEKVVIELLEHVPITETVISRCHELREKGFSLALDDHIYEPVYEPLYHLVDVIKVDLFRTGMENLASEVETLRKWNTKLLAEKVETVEQYERCADLGFTYFQGYYFARP", "soluble on expression in E. coli": "not soluble"}, {"sequence": "MAEFKEQVLDILEEVCENDIVKENLDVQLFEEGILDSFAVVSLLVEFQERLDIEVSISDFDRDEWATPNMVIKKLEEIR", "soluble on expression in E. coli": "not soluble"}, {"sequence": "MAEGLRERKKRQTRQYISDVATGLFLERGFEAVTVAEVADAANVSVNTVYNYFPAKEDLFLDRSKGVIDRLSRWVRGRRDGESAAGAVLRELRDEVESVSPRVGLMDGYATFMKVIQDSPALRSRMWAIGQEVLLNLEHTLREETGSADDDMTPTLMAGQINWLHGTVLAAIGGRMVAGGKPSEVSRDMLLLLDEMEELLSEKVLNYAVRGAL", "soluble on expression in E. coli": "not soluble"}, {"sequence": "MAEHPIQGLMETAMESIKEMVDVNTIVGDAVQAPDGTVIIPISKVTFGFAAGGGEFASCCSVDEKGEDSSDDSSKPEIKFPFAGGSGAGVSINPVAFMVVGQGQIKLLPVNINSSLEKILDLIPEIIEKTKDSVKKNLKVKKEIKPGNGESCAKSSKEDENE", "soluble on expression in E. coli": "not soluble"}, {"sequence": "MAEHRGGSGNFAENREKASEAGRKGGQHSGGNFKNDPQRASEAGKKGGQNSHGGRKSDNS", "soluble on expression in E. coli": "not soluble"}]}]}
